Tested on: K4 kissing-loop RNA reporter
Test: apparent KD of K4 kissing-loop reporter; higher = weaker reporter binding
Settings: Eterna round: R107
Experimental: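 RNA-MaP round R107: designed RNA switches with theophylline, tryptophan, arginine or FMN aptamers are transcribed on-chip within common flanks. They are titrated with a labelled K4 kissing-loop RNA reporter in RNA-MaP buffer (100 mM Tris pH 7.5, 80 mM KCl, 4 mM MgCl2), without ligand or with the indicated ligand. Median apparent KD per design.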

[1] = input ligand: theophylline 20 uM
[2] = input ligand: tryptophan 2.4 mM
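Further: bound reporter read as fluorescence of individual clusters on recovered sequencing chips by microscopy, with normalized cluster intensities fitted with a binding model.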

Sequence | apparent KD of K4 kissing-loop reporter (input ligand: FMN 200 uM) | apparent KD of K4 kissing-loop reporter (input ligand: arginine 13.2 mM) | apparent KD of K4 kissing-loop reporter (input ligand: none) | apparent KD of K4 kissing-loop reporter [1] | apparent KD of K4 kissing-loop reporter [2]
UGAUACCAGACGGCCGCCACUCCUGCAGUCAAAGACUGCUAGGAAAUAUUCGUCCAGUGAUGUUGGAGGACCGGGUCUGGUAUCU [TrypBX 10 #SwitchBubble #Palindromic #StaticStem] | 0.791 µM | 0.6 µM | 0.74 µM | 0.633 µM | 0.894 µM
UGAUACCAGACGGCCGCCACUGCACCAGUCAAUGACUGAGUGUAGUAUUGCUCAGUGAUGUUGAGUAGGACCGGGUCUGGUAUCU [Mod of Eli's TrypBX 8] | 0.109 µM | 0.113 µM | 0.108 µM | 0.128 µM | 0.115 µM
UGAUACCAGACGGCCGCCACUGCGCCAGUCAAUGACUGAGCGCGGUGGCGCUCAGUGAUGUUGAGCAGGACCGGGUCUGGUAUCU [Mod of Eli's TrypBX 8 v5] | 0.149 µM | 0.126 µM | 0.146 µM | 0.144 µM | 0.147 µM
UGAUACCAGACGGCCGCCACUGGGACCGGGAGUGAUGUUCCGAAAAUUAAAUGCUCGGCCGCCACUAGGACCGGGUCUGGUAUCU [TrypBX 29 #DoubleAptamer #SwitchBubble] | 0.727 µM | 0.407 µM | 0.446 µM | 0.231 µM | 0.453 µM
UGAUACCAGACGGCCGCCACUUCCGUAAGUCAAAGACUUACCAAGAGAAUCGUCCAGUGAUGUUGGAGGACCGGGUCUGGUAUCU [FiskerMod 7 - Jieux - Exclusion - Tryptophan B] | 0.931 µM | 0.654 µM | 0.979 µM | 0.849 µM | 0.872 µM
UGAUACCAGACUGAUACCAGCCAGUGAUGUUGGCUGAAAUCAGGGUCAAAGACCCUGUCUGGCCCUUGGCAGCAGUCUGGUAUCU [TheoBX 19 #SwitchBubble #StaticStem] | 0.329 µM | 0.251 µM | 0.291 µM | 0.332 µM | 0.281 µM
UGAUAGCCAGUGAUGUUGGCAUGUACUGAAGGAGCGCGUGGAAACGCAGGUAGGUCGCAGUUCCUUGCCAAUUGAUCGAAAGAUC [#09 K4 Arginine A Exclusion] | 0.249 µM | 0.288 µM | 0.32 µM | 0.395 µM | 0.239 µM
UGAUAGGACAGAAGGAGCGGAAGUGAUGUUUCCAAUGGAAUUAAGGUGUCAAAGACACCCUUCCAGGUAGGUCGCUGUCCUAUCU [ArgBX 18 #Palindromic #SwitchBubble #StaticStem] | 0.156 µM | 0.161 µM | 0.155 µM | 0.159 µM | 0.145 µM
UGAUAGGACAGAAGGAGCGGAAUGCUGUCCAAAAGGACAGCAAAUAUAAAAGGAGUGAUGUUCCAGGUAGGUCGCUGUCCUAUCU [ArgBX 20 #SwitchBubble #StaticStem] | 0.271 µM | 0.206 µM | 0.219 µM | 0.234 µM | 0.203 µM
UGAUAGGACAGAAGGAGCGGGAGUGAUGUUCCCAAAAGAAUAAGGUGUCAAAAGACACCCUUCCAGGUAGGUCGCUGUCCUAUCU | 0.0822 µM | 0.131 µM | 0.106 µM | 0.119 µM | 0.0874 µM
UGAUAGGACAGAAGGAGCGGGAGUGAUGUUCCCAAAAGGGUAAGGUGUCAAAAGACACCCUCCCAGGUAGGUCGCUGUCCUAUCU | 0.155 µM | 0.191 µM | 0.153 µM | 0.175 µM | 0.148 µM
UGAUAGGACAGAAGGAGCGGUAGUGAUGUUGCCAAAAGGAUAAGGUGUCAAAAGACACCCUACCAGGUAGGUCGCUGUCCUAUCU | 0.175 µM | 0.216 µM | 0.154 µM | 0.179 µM | 0.152 µM
UGAUAGGAGUGAAGGAGCGGGAGUGAUGUUCCCAAAAUGGAAGCCUGUAAAAUACAGGCCUCCCAGGUAGGUCGCACUCCUAUCU [KL-XARG-B17] | 0.0983 µM | 0.112 µM | 0.101 µM | 0.117 µM | 0.0947 µM
UGAUUUAACUGAAGGAGCGGCAAUUGAUAAGUAAAUAUAGUGAUGUUAUAUAAGAUAGAGAGCCAGGUAGGUCGCAGAGGUAUUA [ExArgB.M] | 0.154 µM | 0.154 µM | 0.132 µM | 0.21 µM | 0.142 µM
UGCACGGGCUCGGCCGCCACUCCAGCGGGUCGAAAGGUCCGCUACUGAGUGAUGUUCGGUUGGAGGAGGACCGGGAGCCCGUGCA [#2 Exclusion - Tryptophan B Attempt #28 (HarryS)] | 0.0989 µM | 0.0979 µM | 0.122 µM | 0.115 µM | 0.14 µM
UGCAGUGAUGUUGCUAUUUGUCUUGAUAAACGAGGACCGGUACGGCCGCCACUCGAUUUCUCUCUUAUCGGGUAUGUUGUUUAGU [#21 K4 Tryptophan A Exclusion] | 0.156 µM | 0.186 µM | 0.172 µM | 0.205 µM | 0.113 µM
UGCAGUGAUGUUGCUAUUUGUCUUGAUUAACGAGGACCGGUACGGCCGCCACUCGAUUUCUCUCUAAUCGGGUAUGUUGUUUAGU [#20 K4 Tryptophan A Exclusion] | 0.154 µM | 0.2 µM | 0.17 µM | 0.187 µM | 0.119 µM

— the supplement of paper PMC9170038
